16 sequences from a protein production outcome set (Wang et al. 2014) can be followed below.

A short description of this data set: label from the status in PepcDB records.
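Also: failed if final PepcDB status was selected cloned or expressed and not failed if soluble or beyond.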

On to “MSLAHERSSGIYLVAASAVLWSTAGLFVRMADMDMWSMVAWRSAFTFLALGAFFLLRNRFARQRSSMSFGFPGIAGCLVSAIAAITYIASLRWTTVANVMTIYATLPFIVAGIAFVCLRDRVTYRFVIAGCLAFVGVLISVGAAVSHQDMLGIFAAFIMTTGCATQIVIAKRFPDMDTTLMTALAALICICVALPLMQFEIPAPTQIIACALYGVLTTAFGYIFLLQGSRRINAGEAGLISMLDVILGPVWVWLFYNEVISPIVLTGGGIVIMSVAWYLAGDRRAATAP”, for which the protein production entry is “failed”.

For “MSLALYLGNKRMNDMYYTIGQVAKMQHLTISQIRYYDKQGLFPFLQRNEKGDRIFNEEALKYLEMILCLKNTGMPIQKIKQFIDWSMEGDSTILHRLKLMKQQEANVLQLIQDTEKNLKKIQQKIAKYEDEISSANATTKEGHHHHHH”, the protein production entry is “not failed”. For the sequence “MSLARCERLRGAALRDVLGRAQGVLFDCDGVLWNGERAVPGAPELLERLARAGKAALFVSNNSRRARPELALRFARLGFGGLRAEQLFSSALCAARLLRQRLPGPPDAPGAVFVLGGEGLRAELRAAGLRLAGDPSAGDGAAPRVRAVLVGYDEHFSFAKLREACAHLRDPECLLVATDRDPWHPLSDGSRTPGTGSLAAAVETASGRQALVVGKPSPYMFECITENFSIDPARTLMVGDRLETDILFGHRCGMTTVLTLTGVSRLEEAQAYLAAGQHDLVPHYYVESIADLTEGLEDEGHHHHHH”, the protein production result was “not failed”.

In the case of “MSLARPLSFHEDRLFPSDPATRSYARGLYALVKDLPIISPHGHTDPSWFATNAPFQDATDLLLAPDHYLFRMLYSQGVSLDALKVRSKAGVPDTDPREAWRVFASHFYLFRGTPSWVWLNHVFSQVFGFTEFLEASNADDYFDRITAALATDAFRPRALFDRFNIETLATTEGPHESLQHHAAIRESGWGGHVITAYRPDAVIDFEDERSPRAFERFAETSGQDVYSWKSYLEAHRLRRQAFIDAGATSSDHGHPTAATADLSDVEAEALFNSLVKGDVTPEKAELFRAQMLTEMAKMSLDDGLVMQIHPGSHRNHNVGLLNSHGRDKGADIPMRTEYVDALKPLLTRLGNDPRLSIILFTLDETTYSRELAPLAGHYPVLKLGPSWWFHDSPEGMMRFREQVTETAGFYNTVGFNDDTRAFLSIPARHDVARRVDSAFLARMVAEHRMDLVEAEELIVDLTYNLPKKAYKLDQRPDWARPATLRAAAEEGHHHHHH”, the protein production result is on record as “not failed”. Take “MSLARQVTAFNTGWQFKKGPFATDPMRAASQWDGKWETVEIPHTWNAMDMQVQSGSFYEGAGYYRKTQFFPHDLEGKRVFLRFEGVGACAEVYVNGKLAGTHKGGYSAFACEIGTALKLGAENEIIVKADNKARPDVIPVNQNLFGVYGGIYRPVWLIVTEQNNITVTDCASPGVYITQKDVSKKSADITVKVKLDNAGLQPAAVTLENTIYTQEGQKVGTHSRSFDLSPQGTQTYLSTFKLKNPHLWQGRKDPYLYKVVCRLMADGKVIDEVVQPLGVRKYEIVAGKGFFLNGEKYSMYGVTRHQDWWGLGSALKNEHHDFDLAAIMDVGATTVRFAHYQQSDYLYSRCDTLGLIIWAEIPCVNRVTGYETENAQSQLRELIRQSFNHPSIYVWGLHNEVYQPHEYTAALTRSLHDLAKTEDPDRYTVSVNGYGHMDHPVNLNADIQGMNRYFGWYEKKIQDIKPWVEQLEKDYPYQKLMLTEYGADANLAHQTEYLGDALNWGKPFYPETFQTKTHEYQWSIIKDHPYIIASYLWNMFDFAVPMWTRGGVPARNMKGLITFDRKTKKDSYFWYKANWSEEPVLYLTQRRNADREKRTTAVTVYSNIGTPKVYLNGQELSGIRNGYTDVHYVFDNVSLADGKNILKAVVSTKGKEYTDEIEWNYSGEKNREIDSYENKNEHSGEGHHHHHH”: the protein production entry was “not failed”. Next, “MSLDCRVRESIQEEAKGIVAPPELKEKVIVQIKMNQGGRKRKKRLIAGVLAAAFLIPTTGFAYQSIMADGIYGSFENLKKHAGTMTLEAYMRFSAKLSEAKDEMGTKEYEVFTKELKKLTNAKLAYGDSNGNIDYDALSSEKREEMKKVSMGLQPYFDKLNGHKSSKEVLTQEEFDRYMEALMTHEIVRVKTKSTGAIKVEEIPEAYKERFIKAEQFMEYVDEKVR”: “not failed”; “MSLDLPEGHPLKTLYQENKEIMKDAEMLNLYAKTLATTKDERMREEILGVLEEIVSSLRMVGFTHYNREEMLIFPYIERRGLTVIATVLWTKHDEIRAMIKQLAELLRKREEMPWEEFVEKFKAKAGEVAFALSDMVFRENNIFYPTLKALLSEGEWKAIKMQEDEIGYYKVKPPEWDPGEDVKPLHPWEINPELNVEQLLTLPKEVQQALRGQPLEFDKTQLKREEDIDLGTGYLNIEELKAIFEALPVDVTFIDKDDRVRFFSPGERIFTRTPSVLGRPVQLCHPPKSVYVVNKILKAFKEGRKKEATFWLRLREKYVYIKYVPLFNEKGEYIGTLEMTMDIAPYKKIEGEKRLLDWRDEGHITITTDPNSSSVDKLAAALEHHHHHH”: “not failed”.

For the sequence “MSLDSDVIVDRRRMRRKLTFWRVAAVLVAIVAVVAIGAMVSPAGRGALTSTGSIARIKIEGLIRSNDERVQALDRLGKSSYSAVIVHINSPGGTTAGSEELHDALARLKAKKPMVVVVEGLAASGGYIAALASEHIVAQQTSLVGSIGVLFQYPNVSELLKTVGVKVEEVKSSPLKAAPNGFEPTSPEARAAIEALVKDSYAWFRGMVQQSRKMTDDQLNVVADGRVFTGRQAVGLKLIDELGDERTAIAWLEKAKNVKAGLPVRDYKLAPQFGDLTFLRAAASVAFDAAGLGVIARRVEQTGAMQSVERLGLDGMLALWAPSAGQ”, the protein production result is on record as “failed”. Consider “MSLDYTYADDSLTLHTDMYQINMMQTYWELGRADLHAVFECYFREMPFNHGYAIFAGLERLVNYLENLTFTESDIAYLREVEEYPEDFLTYLANFEFKCTVRSALEGDLVFNNEPLIQIEGPLAQCQLVETALLNMVNFQTLIATKAARIKSVIGDDPLLEFGTRRAQELDAAIWGTRAAYIGGADATSNVRAGKIFGIPVSGTHAHSLVQSYGNDYEAFMAYAKTHRDCVFLVDTYDTLKAGVPSAIRVAREMGDKINFLGVRIDSGDMAYISKRVREQLDEAGFTEAKIYASNDLDENTILNLKMQKSKIDVWGVGTKLITAYDQPALGAVFKLVSIEGEDGQMKDTIKLSSNAEKVTTPGKKQVWRITRKSDKKSEGDYVTLWNEDPRQEEEIYMFHPVHTFINKYVRDFEARPVLQDIFVEGKRVYELPTLDEIKQYAKENLDSLWEEYKRDLNPQKYPVDLSTDCWNHKMNLLEKVRKDVKHLTETVNKEAEGHHHHHH”, for which the protein production entry is reported as “not failed”. As to “MSLEAIRIGEINSYSQIPAFTLPYRNGWQLAVEQINAAGGLLGGRPLEVISRDDGGDPGKAVTAAQELLTRHGVHALAGTFLSHVGLAVSDFARQRKVLFMASEPLTDALTWEKGNRYTYRLRPSTYMQAAMLAAEAAKLPITRWATIAPNYEYGQSAVARFKELLLAARPEVTFVAEQWPALYKLDAGPTVQALQQAEPEGLFNVLFGADLPKFVREGRVRGLFAGRQVVSMLTGEPEYLNPLKDEAPEGWIVTGYPWYDIDTAPHRAFVEAYRARWKEDPFVGSLVGYNTLTAMAVAFEKAGGTESETLVETLKDMAFSTPMGPLSFRASDHQSTMGAWVGRTALRDGKGVMVDWRYVDGGSVLPPPEVVSAWRPAGEGHHHHHH”, the protein production result was “not failed”. On to “MSLEFFMAKADNPAFEQGQSPRMRLPDSVPLLIVGGGIMGLWAAVKAERLGIGTLLVEAGRLGGGASGGLLGALMPHMPDRWSDKKQFQFDALVALEAEIAGLEAETGLSGGYRRCGRIIPLPKPHLRGIAERHERDAAENWRSGERRFQWHVGERPSVAGWVDDAAGEAGFVFDTLAARVSPRALIALLSAFLRKARHVQVAEGCRVVSLDADAGRAALSSGEEISFGHVVVANGHESFPLIRDALGLEAGVALGQAVKGQAALLDASADPAMPVVFLNGLYIVPHEDGTVAIGSTSEDCFSEPFSTDEKLEKLLVDACTVVPSLAGAPVLERWAGLRPKAVGRDPMVGAMAGTAKLVALSGGFKVSFGLAHFLADAALETVCGHTPVIPSGFRLQEHVSIAVPDFRKFLEHHHHHH”, for which the protein production result is given as “failed”. As for “MSLEKQKGLAIITGASQGIGAVIAAGLATDGYRVVLIARSKQNLEKVHDEIMRSNKHVQEPIVLPLDITDCTKADTEIKDIHQKYGAVDILVNAAAMFMDGSLSEPVDNFRKIMEINVIAQYGILKTVTEIMKVQKNGYIFNVASRAAKYGFADGGIYGSTKFALLGLAESLYRELAPLGIRVTTLCPGWVNTDMAKKAGTPFKDEEMIQPDDLLNTIRCLLNLSENVCIKDIVFEMKKSIIEGHHHHHH”, the protein production result is on record as “not failed”. Then “MSLEKWRIYEELTNAVREFESINPVRLIPEVGTNFVYSLPLPYARSTKDVAGVKGRIVKYGNSVKAVGPVEFGASDHLARAVLTYMRFYPEYRSAINIRYSREIIEEIIEIAQERGFKVSFYDRREEPEEIKAKEGATIPWGIETAIKRIKERPDIIYHLGDVGKEPMILVFGRNPREVLEKIKMLIEGHHHHHH”, with “not failed”. Next, “MSLELEWMSIDDLKLPSNVIDIIKNRGIKKLNPPQTEAVKKGLLDGNRLLLTSPTGSGKTLIAEMGIISFLLKNGGKAIYVTPLRALTNEKYLTFKDWESIGFKVAMTSGDYDTDDAWLKNYDIIITTYEKLDSLWRHRPDWLNEANYFVLDELHYLNDPERGPVVESVTIRAKRRNLLALSATISNYKQIAKWLGAEPVATNWRPVPLMEGVMYPERKKKEYTILFRDNTARKVHGDDAIIAYTLDSLSKNGQVLVFRNSRKMAESTALKIANYMNFVSLDEKAISEILKQLDDIEEGGSDEKELLKSLISKGVAYHHAGLSKALRDIIEESFRKRKIKVIVATPTLAAGVNLPARTVIIGDIYRFNRKIVGYYDEIPVMEYKQMSGRAGRPGFDQIGESIIVVRDKEDVDRVFKKYILSDVEPIESKLGSERAFYTFLLGILSAEGSLSEKQLEAFAYESLLAKSVVDVYFDRAIRWLSEHSFIREENNTFTLTNFGKRVADLYINPFTADIIRKGLEGYKASCEIAYLHLLAFTPDGPLVSVGRNEEEELIELLEDLECELLVEEPYEEDEYSLYLNALKVALIMKDWIDEVDEDTILGKYNIGSGDLRNIVETMDWLTYSAYHLSKELRLDDHSDKLRILNLRVTDGVKEELLELVQIGGVGRKRARLLYNNGIKGLGDVVMNPDRVRNLLGQKLGERVVQEAARLLNRFH”: “failed”; “MSLENKENLVVIDLAIAEDSIQKKNIVYDKNGQNHFDVISAFIKSIRGSDPDATLYWLANMVEAGEDPNFIFRRLLISACEDIGLADPNAIVVVQSCCDAFDRVGFPEGLFFLSQASLYLAISPKSNSTKSIFKAMEAIKATNVSLVPNHLKNNASNYLNPHNYQGKWLQQEYLPTDLQGIKFWKPKDSGWEKNKYEDLPKKQKSEGHHHHHH”: “not failed”. Turning to “MSLESGFLEDAQANLTLRNFYFNRNFTNPTKAQGKAEEWTQSFILDAKSGFTQGTVGFGMDVLGLYSLKLDGGKGTGGTQLLPLDHDGRPADNFGRLGVAFKARLSQTEVKVGEWMPVLPILRSDDGRSLPQTFRGGQITSKEIAGLTLYGGQFRANSPRDDSSMSDMSMFGKAAFTSDRFNFQGAEYAFNDKRTQIALWNAQLKDIYSQQFINLIHSQPLGDWTLGANLGFFYGKEDGSARAGDMENRTWSGLFSAKYGGNTFYVGLQKLTGDSAWMRVNGTSGGTLANDSYNASYDNAKEKSWQVRHDYNFAALGVPGLTLMNRYISGSNVHTATVSDGKEWGRESEVAYTVQSGTLKNLNLKWRNSTMRRDFSNNEFDENRLIISYPLSLLEGHHHHHH”, the protein production entry is listed as “not failed”.
